Here are results for one protein from PMC6088750.

Substrate in this data set: O=S(O)(O)=S
Briefly: thiosulfate sulfurtransferase initial rates, Michaelis-Menten fit. In kind it is biochemical, Enterococcus faecalis. The following applies: RHD domain activity; minimal TST activity.

B1: Ef CDR-RHD / CoA persulfide reductase (CoAPR) (Enterococcus faecalis OG1RF) (protein)
chain: MKIVIIGGVAGGMSAATRLRRLMEDAEIVVMEKGPFVSFANCGLPYYVSGEIAEREQLLVQTPEALKARFNLDVRPHHEVVAIDPIEKVITVKHETEILTEHYDKLILSPGAKPFVPPITGLAEAKNVFSLRNVPDLDQIMTALTPETKRAVVIGAGFIGLEMAENLQKRGLEVTLVEKAPHVLPPLDEEMAAFVKAELSKNNVQVITGQSAVAFEEEGQVIRLEDGQTLASDLTILSVGVQPENTLAVEAGVATGLRGGIVVDEHYQTNQPDIYAVGDAIVVKQQITQEDALISLASPANRQGRQVADVIAGLERKNQGSIGTAIVRVFDLTAASTGLSERAAKAAGLTTAVVHISGKDHAGYYPGATDLQLKLVFHPTTGEIYGAQGIGAKGVDKRIDILATAIKGQLTIFDLPELEFTYAPPFGSAKDPVNMLGYAAMNLVEGLSENVQWYELSNELAKGAVLLDVRNPAERANGQFKNAVSIPLNELRERLEELDKSTEYIVSCHSGLRSYIAERMLKQAGISAKNLDGAFALYRMVKPEELENV
Broadly, the Km is the concentration of substrate that gives half-maximal velocity. As to B1, the Km came to 1000 ± 600 µM.
